US20120269821A1

Legend:
Assay in all cases: cell-based or functional assay
[1] = biological target: B.SF162 envelope (HIV-1)
[2] = biological target: SC422661.8 envelope (HIV-1)
[3] = biological target: B.BG1168 envelope (HIV-1)
[4] = biological target: C.TV-1 envelope (HIV-1)
[5] = biological target: Du156.12 envelope (HIV-1)
[6] = biological target: Du422.1 envelope (HIV-1)
[7] = biological target: TRO.11 envelope (HIV-1)
[8] = biological target: QH0692.42 envelope (HIV-1)
[9] = biological target: ZM197M.PB7 envelope (HIV-1)
[10] = biological target: CAP206.1.B5 envelope (HIV-1)
[11] = biological target: COT6.15 envelope W672A (HIV-1)
[12] = biological target: COT6.15 envelope N668A (HIV-1)
[13] = biological target: COT6.15 envelope K677A (HIV-1)
[14] = biological target: COT6.15 envelope T676A (HIV-1)
[15] = biological target: COT6.15 envelope W678A (HIV-1)
[16] = biological target: COT6.15 envelope L679A (HIV-1)
[17] = biological target: COT6.15 envelope D664A (HIV-1)
[18] = biological target: COT6.15 envelope D674A (HIV-1)
[19] = biological target: COT6.15 envelope A662G (HIV-1)
[20] = biological target: COT6.15 envelope K667A (HIV-1)
[21] = biological target: COT6.15 envelope D674N (HIV-1)
[22] = biological target: COT6.15 envelope L669A (HIV-1)
[23] = biological target: COT6.15 envelope S671A (HIV-1)
[24] = biological target: COT6.15 envelope W680A (HIV-1)
[25] = biological target: COT6.15 envelope F673A (HIV-1)
[26] = biological target: COT6.15 envelope D674S (HIV-1)
[27] = biological target: COT6.15 envelope I675A (HIV-1)
[28] = biological target: COT6.15 envelope, wild type (HIV-1)
[29] = biological target: COT6.15 envelope W670A (HIV-1)
[30] = biological target: COT6.15 envelope S665A (HIV-1)
[31] = biological target: COT6.15 envelope L663A (HIV-1)
[32] = biological target: COT6.15 envelope W666A (HIV-1)

mAb 2F5 (Polymun Scientific) (antibody) was tested, and the 50% neutralization level [1] was 0.1 µg/mL, the IC50 in TZM-bl/FcγRI cells [2] was less than 10 µg/mL and the 50% neutralization level [3] was 0.32 µg/mL. The 50% neutralization level [4] was 10.9 µg/mL, the IC50 in TZM-bl cells [5] was greater than 25000 µg/mL and the IC50 in TZM-bl/FcγRI cells [5] was greater than 25000 µg/mL. It also gave an IC50 in TZM-bl cells [6] greater than 25000 µg/mL, an IC50 in TZM-bl/FcγRI cells [6] greater than 25000 µg/mL and an IC50 in TZM-bl cells [7] greater than 25000 µg/mL. It also gave an IC50 in TZM-bl cells [8] of 1810 µg/mL, an IC50 in TZM-bl/FcγRI cells [8] of less than 10 µg/mL and an IC50 in TZM-bl cells [9] greater than 25000 µg/mL. It also gave an IC50 in TZM-bl/FcγRI cells [9] of 60 µg/mL, an IC50 in TZM-bl cells [10] greater than 25000 µg/mL and an IC50 in TZM-bl/FcγRI cells [10] greater than 25000 µg/mL.

Substance mAb 4E10 (antibody) has an IC50, pseudovirus neutralization [11] greater than 25 µg/mL, a Ratio (mutant IC50)/(wild-type IC50) [11] greater than 25 and an IC50, pseudovirus neutralization [12] of 1.3 µg/mL. The Ratio (mutant IC50)/(wild-type IC50) [12] was 1.4, the IC50, pseudovirus neutralization [13] was 0.05 µg/mL and the Ratio (mutant IC50)/(wild-type IC50) [13] was 0.1. For the same substance, the IC50 in TZM-bl/FcγRI cells [2] was less than 10 µg/mL, the IC50, pseudovirus neutralization [14] was 21.8 µg/mL and the Ratio (mutant IC50)/(wild-type IC50) [14] was 24.2. It also gave an IC50, pseudovirus neutralization [15] of 0.05 µg/mL, a Ratio (mutant IC50)/(wild-type IC50) [15] of 0.1 and an IC50, pseudovirus neutralization [16] of 0.09 µg/mL. It also gave a Ratio (mutant IC50)/(wild-type IC50) [16] of 0.1, an IC50 in TZM-bl cells [5] of 200 µg/mL and an IC50 in TZM-bl/FcγRI cells [5] of less than 10 µg/mL. For the same substance, the IC50, pseudovirus neutralization [17] was 0.77 µg/mL, the Ratio (mutant IC50)/(wild-type IC50) [17] was 0.9 and the IC50 in TZM-bl cells [6] was 300 µg/mL. The IC50 in TZM-bl/FcγRI cells [6] was less than 10 µg/mL, the IC50, pseudovirus neutralization [18] was 1.4 µg/mL and the Ratio (mutant IC50)/(wild-type IC50) [18] was 1.6. The IC50, pseudovirus neutralization [19] was 0.12 µg/mL, the Ratio (mutant IC50)/(wild-type IC50) [19] was 0.1 and the IC50, pseudovirus neutralization [20] was 0.05 µg/mL. It also gave a Ratio (mutant IC50)/(wild-type IC50) [20] of 0.1, an IC50, pseudovirus neutralization [21] of 0.33 µg/mL and a Ratio (mutant IC50)/(wild-type IC50) [21] of 0.4. It also gave an IC50, pseudovirus neutralization [22] of 0.05 µg/mL, a Ratio (mutant IC50)/(wild-type IC50) [22] of 0.1 and an IC50, pseudovirus neutralization [23] of 0.04 µg/mL. For the same substance, the Ratio (mutant IC50)/(wild-type IC50) [23] was 0, the IC50, pseudovirus neutralization [24] was 10.9 µg/mL and the Ratio (mutant IC50)/(wild-type IC50) [24] was 12.1. The IC50, pseudovirus neutralization [25] was greater than 25 µg/mL, the Ratio (mutant IC50)/(wild-type IC50) [25] was greater than 25 and the IC50, pseudovirus neutralization [26] was 2.49 µg/mL. It also gave a Ratio (mutant IC50)/(wild-type IC50) [26] of 2.8, an IC50, pseudovirus neutralization [27] of 0.04 µg/mL and a Ratio (mutant IC50)/(wild-type IC50) [27] of 0. It also gave an IC50, pseudovirus neutralization [28] of 0.9 µg/mL, an IC50, pseudovirus neutralization [29] of 0.11 µg/mL and a Ratio (mutant IC50)/(wild-type IC50) [29] of 0.1. For the same substance, the IC50, pseudovirus neutralization [30] was 0.14 µg/mL, the Ratio (mutant IC50)/(wild-type IC50) [30] was 0.2 and the IC50 in TZM-bl cells [7] was 300 µg/mL. For the same substance, the IC50, pseudovirus neutralization [31] was 0.02 µg/mL, the Ratio (mutant IC50)/(wild-type IC50) [31] was 0 and the IC50 in TZM-bl cells [8] was 6500 µg/mL. The IC50 in TZM-bl/FcγRI cells [8] was 110 µg/mL, the IC50 in TZM-bl cells [9] was 1100 µg/mL and the IC50 in TZM-bl/FcγRI cells [9] was less than 10 µg/mL. The IC50, pseudovirus neutralization [32] was 0.51 µg/mL, the Ratio (mutant IC50)/(wild-type IC50) [32] was 0.6 and the IC50 in TZM-bl cells [10] was 0.1. It also gave an IC50 in TZM-bl/FcγRI cells [10] of less than 10 µg/mL.

mAb Z13e1 (antibody) was tested, and the IC50 in TZM-bl cells [5] was 4700 µg/mL, the IC50 in TZM-bl cells [7] was 13300 µg/mL and the IC50 in TZM-bl cells [8] was 46000 µg/mL. The IC50 in TZM-bl cells [9] was 30.

Substance recombinant 2F5 IgG antibody has a 50% neutralization level [1] of 0.3 µg/mL, a 50% neutralization level [3] of 1.17 µg/mL and a 50% neutralization level [4] of 34.5 µg/mL.
